The values below come from patent US20150125463A1 (Bristol-Myers Squibb, published 2015).

For experiment [1], the target named is T1, human PD-L1 (on cells or in tissue) (human, UniProt Q9NZQ7 19-290).
T1 construct: whole, on cells; also called hPD-L1; Programmed Death Ligand-1
The experiment in a line: competition flow cytometry on ES-2 cells: unlabeled Ab titrated, then biotin-12A4 at 0.4 ug/mL, streptavidin-PE. (A flow cytometer gives signals particle by particle.)

Experiment [2] concerns the target T1, human PD-L1 (on cells or in tissue). The experiment in a line: flow cytometry on CHO/PD-L1 cells pre-incubated with 10 ug/mL hIgG1, FITC-10H10 at 0.27 ug/mL. The text has this: (§1) Different quantities of the various FITC-conjugated HuMAbs were used due to differences in binding efficiency following labeling, and the optimal amounts of these FITC-conjugated HuMAbs were previously determined by dose-titration analysis of binding to CHO/PD-L1 cells.

Experiment [3] shares this target. Nature of the experiment: flow cytometry competition on CHO/PD-L1 cells; unlabeled mAb at 10 ug/ml.
Text: as §1

In experiment [4] the target is T2, human PD-1 (human, UniProt Q15116 25-288).
T2 construct: whole, on cells; also called hPD-1; Programmed Death-1
Nature of the experiment: flow cytometry on CHO/PD-1 cells pre-incubated with 10 ug/mL hIgG1 control, 2D3 at 0.2 ug/mL, detection with FITC goat anti-hIgG Fc.

Experiment [5] concerns the target T2, human PD-1. The experiment in a line: flow cytometry on CHO/PD-1 cells pre-incubated with hIgG control, FITC-labeled 17D8.
Experiment [6] concerns the target T2, human PD-1. Nature of the experiment: flow cytometry on CHO/PD-1 cells pre-incubated with 10 ug/mL hIgG1 control, 4H1 at 0.2 ug/mL, detection with FITC goat anti-hIgG Fc.
Experiment [7] has as its target T2, human PD-1. The experiment in a line: flow cytometry on CHO/PD-1 cells pre-incubated with 10 ug/mL hIgG1 control, 7D3 at 0.2 ug/mL, detection with FITC goat anti-hIgG Fc.

B1: anti-PD-L1 HuMAb 10A5 (antibody, V domains shown)
VH: QVQLVQSGAEVKKPGASVKVSCKASGYTFTSYDVHWVRQAPGQRLEWMGWLHADTGITKFSQKFQGRVTITRDTSASTAYMELSSLRSEDTAVYYCARERIQLWFDYWGQGTLVTVSS
VL: DIQMTQSPSSLSASVGDRVTITCRASQGISSWLAWYQQKPEKAPKSLIYAASSLQSGVPSRFSGSGSGTDFTLTISSLQPEDFATYYCQQYNSYPYTFGQGTKLEIK
notes: Human mAb; Used unconjugated and FITC-conjugated
Consider B1, for which the binding result in experiment [1] is “binds”.

B2: anti-PD-L1 HuMAb 10H10 (antibody, V domains shown)
VH: EVQLVESGGGLVQPGRSLRLSCAVSGFTFDDYVVHWVRQAPGKGLEWVSGISGNSGNIGYADSVKGRFTISRDNAKNSLYLQMNSLRAEDTALYYCAVPFDYWGQGTLVTVSS
VL: DIQMTQSPSSLSASVGDRVTITCRASQGISSWLAWYQQKPEKAPKSLIYAASSLQSGVPSRFSGSGSGTDFTLTISSLQPEDFATYYCQQYNSYPYTFGQGTKLEIK
notes: as for B1
Regarding B2, the binding result in experiment [2] is “binds”.

B3: anti-PD-L1 HuMAb 1B12 (antibody, V domains shown)
VH: QVQLVQSGAEVKKPGSSVKVSCKTSGDTFSSYAISWVRQAPGQGLEWMGGIIPIFGRAHYAQKFQGRVTITADESTSTAYMELSSLRSEDTAVYFCARKFHFVSGSPFGMDVWGQGTTVTVSS
VL: not shown
notes: Human mAb
In the case of B3, the “IC50 (read off the curve)” value in experiment [1] is approximately 0.2 nM.

B4: anti-PD-L1 HuMAb 7H1 (antibody, V domains shown)
VH: QVQLVQSGAEVKKPGSSVKVSCKTSGGTFSSYAISWVRQAPGQGLEWMGGIIPIFGKAHYAQKFQGRVTITADESTTTAYMELSSLRSEDTAVYYCARKYDYVSGSPFGMDVWGQGTTVTVSS
VL: not shown
notes: Human mAb
B4: the binding result in experiment [3] was “binds”.

B5: anti-PD-1 HuMAb 2D3 (antibody, V domains shown)
VH: QVQLVESGGDVVQPGRSLRLSCAASGLTFTNYGFHWVRQAPGKGLEWVAVIWYDGSKKYYADSVKGRFTISRDNSKNTLYLQMNNLRAEDTAVYYCATGDDYWGQGTLVTVSS
VL: EIVLTQSPATLSLSPGERATLSCRASQSVSSYLAWYQQKPGQAPRLLIYDTSNRATGIPARFSGSGSGTDFTLTISSLEPEDFAVYYCQQRSNWPLTFGGGTKVEIK
notes: Human mAb
In the case of B5, in the experiment with human PD-1 [4], the binding result is “binds”.

B6: anti-PD-1 HuMAb 17D8 (antibody, V domains shown)
VH: QVQLVESGGDVVQPGGSLRLSCAASGVAFSNYGMHWVRQAPGKGLEWVAVIWYDGSNKYYADSVKGRFTISRDNSKNMLYLQMNSLRAEDTAMYYCARNDDYWGQGTLVTVSS
VL: EIVLTQSPATLSLSPGERATLSCRASQSVSSYLAWYQQKPGQAPRLIIYDASNRATGIPARFSGSGSGTDFTLTISSLEPEDFAVYYCQQRSNWPLTFGGGTKVEIK
notes: Human mAb; also called FITC-labeled 17D8
For B6, in the experiment with human PD-1 [5], the binding result is given as “binds”.

B7: anti-PD-1 HuMAb 4H1 (antibody, V domains shown)
VH: QVYLVESGGGVVQPGRSLRLSCAASGFTFSNYGMHWVRQAPGKGLEWVALIWYDGSNKYYADSVKGRFTISRDNSKNTLYLQMTSLRVEDTAVYYCASNVDHWGQGTLVTVSS
VL: EIVLTQSPATLSLSPGERATLSCRASQSVSSYLAWYQQKPGQAPRLLIYDASNRATGIPARFSGSGSGTDFTLTISSLEPEDFAVYYCQQSSNWPRTFGQGTKVEIK
notes: Human mAb
As for B7, the binding result in the experiment with human PD-1 [6] is recorded as “binds”.

B8: anti-PD-L1 HuMAb 3G10 (antibody, V domains shown)
VH: QVQLVQSGAEVKKPGASVKVSCKASGYTFTDYGFSWVRQAPGQGLEWMGWITAYNGNTNYAQKLQGRVTMTTDTSTSTVYMELRSLRSDDTAVYYCARDYFYGMDVWGQGTTVTVSS
VL: EIVLTQSPATLSLSPGERATLSCRASQSVSSYLVWYQQKPGQAPRLLIYDASNRATGIPARFSGSGSGTDFTLTISSLEPEDFAVYYCQQRSNWPRTFGQGTKVEIK
notes: as for B1
On to B8, for which the “IC50 (read off the curve)” value in experiment [1] was approximately 0.9 nM.

B9: anti-PD-1 HuMAb 7D3 (antibody, V domains shown)
VH: QVQLVESGGGVVQPGRSLRLSCTTSGITFSSYGFHWVRQAPGKGLEWVAVIWYDGSKKYYADSVKGRFTLSRDDSKNTLYLQMNSLRAEDTAVYYCVTGDDYWGQGTLVTVSS
VL: EIVLTQSPATLSLSPGERATLSCRASQSVSSYLAWYQQKPGQAPRLLIYDASNRATGIPARFSGSGSGTDFTLTISSLEPEDFAVYYCQQRSNWPLTFGGGTKVEIK
notes: Human mAb
Consider B9, for which, in the experiment with human PD-1 [7], the binding result was “binds”.
